Source: the supplement of paper PMC9170038

Key:
Conditions in all cases: FMN input: 0 or 200 uM; Eterna round: R93 (includes R88 designs)
MS2 coat protein [1] = assay: apparent KD of MS2 coat protein, switch OFF state (with FMN for OFF switches, without FMN for ON switches); designed switch direction (-1 OFF switch, 1 ON switch): 1; higher = weaker reporter binding
Summary of the method: (§1)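 The buffer was 100 mM Tris-HCl pH 7.5 with 80 mM KCl and 4 mM MgCl2, used without or with constant ligand. In it, RNA switches transcribed on-chip from Illumina sequencing clusters were titrated with SNAP-549-labelled MS2 coat protein in twofold steps from 0.7 or 1.5 nM to 3 µM. Apparent KD for each design is the median of its normalised cluster binding-curve fits.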

MS2 coat protein [2] = assay: apparent KD of MS2 coat protein, switch ON state; designed switch direction (-1 OFF switch, 1 ON switch): 1; higher = weaker reporter binding
Summary of the method: as §1

MS2 coat protein [3] = assay: apparent KD of MS2 coat protein, switch OFF state (with FMN for OFF switches, without FMN for ON switches); designed switch direction (-1 OFF switch, 1 ON switch): -1; higher = weaker reporter binding
Summary of the method: as §1

MS2 coat protein [4] = assay: apparent KD of MS2 coat protein, switch ON state; designed switch direction (-1 OFF switch, 1 ON switch): -1; higher = weaker reporter binding
Summary of the method: as §1

| Sequence | apparent KD of MS2 coat protein (MS2 coat protein [1]) [nM] | apparent KD of MS2 coat protein (MS2 coat protein [2]) [nM] | apparent KD of MS2 coat protein (MS2 coat protein [3]) [nM] | apparent KD of MS2 coat protein (MS2 coat protein [4]) [nM] |
| --- | --- | --- | --- | --- |
| AAAAAAAAAAAUAAGGAUAUGUGAUCGGUGACAUGAGGAUCACCCAUGUAAGGCCUCCGGGACGGGCAGAAGGUAUAAAAAAAAA [Same State2-III] | 607 | 491 |  |  |
| AAAAAAAAAAGUCAGGAUAUACAAAUUUUUACAUGAGGAUCACCCAUGUUAAAGAAAAAAAAAAAGUAGAAGGGACAAAAAAAAAA [Same State 2 - Omei 2] | 15.4 | 11.1 |  |  |
| AAAAAAAAAGUGCAGGAUAUCCUCAUGGCUACAUGAGGAUCACCCAUGUGAAGAAAAGCACAUGAGGAGAAGGGCACAAAAAAAAA [Balance beam] | 23.1 | 12.3 |  |  |
| AAAAAAAAAUCUCAGGAUAUAGAUUAUAGAACAUGAGGAUCACCCAUGUAGUGAAAGAAGAAAAACUAGAAGGGAGGAAAAAAAAA [Same State 2 #2] | 70.8 | 48.2 |  |  |
| AAAAAAAAUGUGUAGGAUAUCAGUAAAAAUACAUGAGGAUCACCCAUGUUCAAAAAAAAAAAAACUGAGAAGGACACGGAUGGUCC [Design 1] | 42.6 | 35.5 |  |  |
| AAAAAACAUGAGGAUCACCCAUGUAAAAAAAUCGCAGGAUAUAAGGUCGCGAAAGCGACCUUAGAAGGGCGAUCCU [Louisiana 1 - Jieux - Same State 1] | 75.8 | 46.3 |  |  |
| AAAAAACAUGAGGAUCACCCAUGUAAAAAAAUGGGAGGAUAUACAAAAAAAAAAAAAAAAGUAGAAGGCCUGAAAA [same state 10] | 533 | 62.3 |  |  |
| AAAAAACAUGAGGAUCACCCAUGUAAAAAAAUGGGAGGAUAUACAAAAACGAAAGUCAAAGUAGAAGGCCUGAAAA [same state 5] | 172 | 19.3 |  |  |
| AAAAAACAUGAGGAUCACCCAUGUAAAAUUAUGGGAGGAUAUGGAAACACGAAAGUGAAACCAGAAGGCCUAAAAG [77%, Mat - Mod of Eli, 11] | 49.7 | 25.1 |  |  |
| AAAAAACAUGAGGAUCACCCAUGUAGAAACAUGGGAGGAUAUACGAAGACGAAAGUCAAAGUAGAAGGCCUAAGAA [Garnet 88] | 224 | 182 |  |  |
| CUCUAGUAAGGAUAUCGAAGAAAAGAAAAGAAAGAAAAGAACGAGAAGGUACAUGAGGAUCACCCAUGUAAGAA [EteRNA is fun!] |  |  | 19 | 34.5 |
| CUCUAGUUAGGAUAUCGAAGAAAAGAAAAGAAAGAAAAGAACGAGAAGGAACAUGAGGAUCACCCAUGUAAGAA [EteRNA is fun!] |  |  | 28 | 29.1 |
| GAAAAGUGAGGAUAUUCGGAAGGGAAAGCGCAAACCCAACCGAAGAAGGCACAUGAGGAUCACCCAUGUGGAAG [Mat - Exaclusion 4 - Eli mod - D58] |  |  | 28.7 | 23.6 |
| GAAACACAUGAGGAUCACCCAUGUCAGGAUAUUCAAACAAAAACAAAACAAAACAAACGAAGAAGGGACAAAAG [Mat - Same state - Mayanna Mod - D102] |  |  | 32.6 | 27 |
| GAAGAACAUGAGGAUCACCCAUGUGAGGAUAUACAGAAGGGAAUAAAAUAACCUGAAAGUAGAAGGCACAAGAA [Ex 1 May 41] |  |  | 65.8 | 45.7 |
| GAAUGAUGAGGAUAUACAUGAGGAUCACCCAUGUGUAAAAAUAAAUACACAAAAGAAAGUAGAAGGCAUCAAAG [Mat - Exclusion 3 - Mayanna mod - D120] |  |  | 99 | 22.9 |
| GAGAGGGCAGGAUAUGCGGAGAGAGAGAGAGAGAGAGAGAGACAUGAGGAUCACCCAUGUAGAAGGGCCGAGAG [salish99-ex2-09] |  |  | 28.1 | 62.3 |
| GAUCCACAUGAGGAUCACCCAUGUAAGGAUAUUUAAAACCGGAGGAAACCCUCCGAAGAAAGAAGGUACAAAAC [Atceabi] |  |  | 14.5 | 14.6 |
| GCUGUCGUAGGAUAUACAUGAGGAUCACCCAUGUGAGAGAAAAAAGUGAGAAAGAAAAGUAGAAGGACGGUAGG [salish99-ex3-105] |  |  | 43.1 | 37.5 |

| Sequence | apparent KD of MS2 coat protein (MS2 coat protein [1]) [nM] | apparent KD of MS2 coat protein (MS2 coat protein [2]) [nM] | apparent KD of MS2 coat protein (MS2 coat protein [3]) [nM] | apparent KD of MS2 coat protein (MS2 coat protein [4]) [nM] |
| --- | --- | --- | --- | --- |
| GGAAAACAUGAGGAUCACCCAUGUAAGGAUAUGCAAAAAAAAGGAUAUAGAAGGAAAAGCAGAAGGUACAAAGG [salish99-ex1-26] |  |  | 38.2 | 30.8 |
| GGAAAACAUGAGGAUCACCCAUGUAAGGAUAUGCUAAAAAAAAAAAAAAAAAAAAAAUGCAGAAGGUACUAAAG [Amethyst 18] |  |  | 118 | 34 |
| GGAAAACAUGAGGAUCACCCAUGUCAGGAUAUACAAAGAAAGAAAGAAAAGAAAGAAAGUAGAAGGGACAAAAG [Amethyst 15] |  |  | 31.9 | 27.1 |
| GGAAAACAUGAGGAUCACCCAUGUGAGGAUAUCGAUGUCCAAAAGAAAGUGCGGGACUCGAGAAGGCACUUGGA [salish99-ex1-36] |  |  | 45.8 | 56.3 |
| GGGUCACAUGAGGAUCACCCAUGUAAGGAUAUGCUAGGGAUGGAAACCAUUCCGCAACGCAGAAGGUACUAAAG [Janelle Amethyst 18 Mod 12 - Jieux - Exclusion 1] |  |  | 105 | 50.4 |
| GGGUCACAUGAGGAUCACCCAUGUAAGGAUAUGCUAGGGAUGGAAGCCAGGCCGCAACGCAGAAGGUACUAAAG [Janelle Amethyst 18 Mod 14 - Jieux - Exclusion 1] |  |  | 54.7 | 55.1 |
| GGUUGGCGAGGAUAUACAUGAGGAUCACCCAUGUGAGAGAAAAAAGUAAGAAAGAAAAGUAGAAGGCGCUGACG [salish99-ex3-51] |  |  | 87.8 | 30.7 |
| GGUUGGCGAGGAUAUACAUGAGGAUCACCCAUGUGAGAGAAAAAAGUGAGAAUGAAAAGUAGAAGGCGCUGACG [salish99-ex3-35] |  |  | 215 | 46.2 |
| GUCGUGUGAGGAUAUGGAAAGUAGAAGUGGCGGUCGAAAACCUAGAAGGCACAUGAGGAUCACCCAUGUAAGAG [JR_Exc004_Sub1708] |  |  | 54.3 | 57 |
| GUGUACAGAGGAUAUACAUGAGCAUGGAAUCAUGCAGGAUCACAUGAGGAUCACCCAUGUAGAAGGCUGUACAC [LROPPY Exclusion 2 - v06_mod Brourd] |  |  | 39.8 | 66.9 |
| GUGUACAGAGGAUAUACAUGAGCUAGGAAACUAGCAGGAUCACAUGAGGAUCACCCAUGUAGAAGGCUGUACAC [Ex2: 731] |  |  | 15.5 | 42.5 |
| GUGUACAGAGGAUAUACUGGAGCAUGGAAACAUGCAAGAUCACAUGAGGAUCACCCAUGUAGAAGGCUGUACAC [Ex2: 742] |  |  | 21.8 | 119 |
| GUGUACAGAGGAUAUAUAUGAGCAUGGAAACAUGCAUCCUCACAUGAGGAUCACCCAUGUAGAAGGCUGUACAC [Ex2: 704] |  |  | 41.3 | 624 |
| UAAAAGGUAGGAUAUACUUGGAAGACCUGCCAACAAUAACAACAUGAGGAUCACCCAUGUAGAAGGACCAAUAU [Edtiatlema] |  |  | 19.5 | 23.2 |
| UACGUAUGAGGAUAUACAAACAGAAAAAUCAGACAUAACUGACAUGAGGAUCACCCAUGUAGAAGGCAUAUACA [JR_Exc002_Sub904] |  |  | 17.4 | 25.3 |
| UAGAAGGUAGGAUAUACUUGGGAAACUAAUGCAAAGAUAUAACAUGAGGAUCACCCAUGUAGAAGGGCCAGUAA [JR_Exc002_Sub018] |  |  | 97.9 | 114 |
| UCACACCUAGGAUAUACAUGAGGAUCACCCAUGUGGCACUCCGCAGGCAGUGUUCCCAGUAGAAGGAGGACACG [Ricere] |  |  | 22.4 | 27.8 |
| UCCGAACAUGAGGAUCACCCAUGUCAGGAUAUACACCCAGCAUGGAAGCCAUGCUCAAGUAGAAGGGACGGGUG [Inxeus] |  |  | 34.9 | 34.9 |
| UCCUGACAUGAGGAUCACCCAUGUCAGGAUAUCUACAGAACCUCAUGUAAAAAACUGUAGAGAAGGGAUAUGGG [Design 98: Pseudoknot H] |  |  | 17.5 | 16.9 |
